The target in assay [1] is T1, recombinant human GREM1 (hGREM1-His; C-terminal 10His tagged, R&D, #5190-GR) (human, UniProt O60565 25-184, limits assumed).
T1 sequence: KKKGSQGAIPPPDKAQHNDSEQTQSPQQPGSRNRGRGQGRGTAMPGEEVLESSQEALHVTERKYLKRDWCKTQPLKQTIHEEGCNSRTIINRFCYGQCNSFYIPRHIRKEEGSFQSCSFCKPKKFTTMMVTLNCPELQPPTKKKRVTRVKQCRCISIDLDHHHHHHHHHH
Put plainly: cell-based or functional assay.

The target in assay [2] is T1, recombinant human GREM1 (hGREM1-His; …). Put plainly: cell-based or functional assay. The source holds these as a separate data set.
Assay [3] has the same target. Nature of the assay: BLI Octet, mAb captured, 100 nM GREM1.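 Also: octet Red96 biolayer interferometry at 25 °C in pH 7.4 HEPES saline buffer, antibodies held on anti-human IgG Fc capture biosensors, then exposed to GREM1.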 On the technique in general: Biolayer interferometry detects binding as a change in optical thickness at a sensor tip.
Assay [4] shares this target. Put plainly: BLI Octet, mAb captured, 100 nM GREM1 + 5 uM heparin.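 Also: octet Red96 biolayer interferometry at 25 °C, antibodies captured on anti-human IgG Fc biosensors, pH 7.4 HEPES buffer with 0.1 mg/mL BSA.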
In assay [5] the target is T2, human GREM1 (hGREM1-His; SEQ ID NO: 595) (human, UniProt O60565 25-184).
T2 construct: also called biotin-hGREM1-His; recombinant human GREM1 protein
T2 sequence: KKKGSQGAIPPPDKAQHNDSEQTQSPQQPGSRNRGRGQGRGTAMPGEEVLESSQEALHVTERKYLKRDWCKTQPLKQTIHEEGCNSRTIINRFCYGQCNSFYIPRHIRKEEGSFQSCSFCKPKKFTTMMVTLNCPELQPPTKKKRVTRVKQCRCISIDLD
Nature of the assay: SPR, Biacore T200, 25 C, mAb captured, hGREM1-His injected. (In general: Surface plasmon resonance follows binding to a sensor surface in real time, without labels.)

Assay [6] addresses T2, human GREM1 (hGREM1-His; SEQ ID NO: 595). Nature of the assay: SPR, Biacore T200, 37 C, mAb captured, hGREM1-His injected.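 Also: HBS-EP running buffer containing heparin, association and dissociation phases tracked, KD computed as koff over kon and half-life derived from koff.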
For assay [7], the target named is T1, recombinant human GREM1 (hGREM1-His; …). Put plainly: BLI Octet, mAb captured, 100 nM GREM1 without vs with 5 uM heparin.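 Also: octet Red96 biolayer interferometry at 25 °C, antibodies captured on anti-human IgG Fc biosensors, association of GREM1 measured with versus without heparin in HEPES-buffered saline, pH 7.4.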
For assay [8], the target named is T2, human GREM1 (hGREM1-His; SEQ ID NO: 595). Put plainly: competition ELISA, biotin-hGREM1-His (100 pM) binding to coated hBMP4. For orientation: ELISA stands for enzyme-linked immunosorbent assay.

Changes are numbered by the printed parent chain.

By Kd is commonly meant the concentration at which binding is half-saturated. Read a high Kd as weaker binding. One may read the koff as a measure of how fast the partners let go of each other. A high value points to fast dissociation. For orientation: kon means the rate constant with which the complex forms. Read a high kon as faster complex formation. As a reminder, the IC50 is the concentration that gives 50% inhibition.

B1: H4H6240P (antibody, human IgG4, V domains shown)
VH: QVQLVESGGGVVQPGRSLRLSCAASGFTFSSYGMHWVRQAPGKGLEWVAVIWYDGSNKYYADSVKGRFIISRDNSKNMMYLQMNSLRAEDTAVYYCAREDNWNYAFDYWGQGTLVTVSS
VL: EIVMTQSPATLSVSPGERATLSCRASQSISSNLAWYQQKPGQAPRLLIYDSSTRATGIPARFSGSGSGTQFTLTISSLQSEDFALYYCQQYSNWPPFTFGPGTKVDIK
notes: H4H prefix = human IgG4 Fc
For B1, in assay [1], the “IC50 [M], inhibition of hGREM1-His, W-20-17/BRE-luc luciferase (100 pM hBMP4, 10 nM hGREM1-His)” value (“IC50 [M], inhibition of hGREM1-His” below) stood at 8.1e-10 M. Also, the “hGREM1-His Inhibition IC50, M; W-20-17 cell differentiation assay (alkaline phosphatase)” value in assay [2] was 7.8 nM. Moreover, in assay [3], the “Binding Signal with 30 sec Association” value was determined as 0.23 nm and the “Binding Signal with 300 sec Association” value is 0.53 nm. In assay [4], the “Binding Signal with 30 sec Association” value was 0.05 nm and the “Binding Signal with 300 sec Association” value worked out at 0.37 nm. Also, in assay [5], the Kd was 4 nM, the koff is 0.000319 s⁻¹, the kon was found to be 79700 M⁻¹ s⁻¹ and the t1/2 is 36 min. In assay [6], this molecule had a Kd of 9.75 nM, a koff of 0.00118 s⁻¹, a kon of 121000 M⁻¹ s⁻¹ and a t1/2 of 10 min. For the same molecule, in assay [7], the “Reduction in Signal from Heparin at 30 sec” value (from here on “Reduction … at 30 sec”) came out at 0.18 nm and the “Reduction in Signal from Heparin at 300 sec” value (from here on “Reduction … at 300 sec”) came to 0.16 nm. Besides, in assay [8], the “% blocked at maximum Ab tested (20 nM)” value came out at 60% and the IC50 worked out at 0.65 nM.

B2: H4H6245P (antibody, human IgG4, V domains shown)
VH: EVQLVESGGGLVQPGGSLRLSCAASGFTFNSFWMSWVRQAPGKGLEWVANIKQDGSEKYYVDSVKGRFTISRDNAKNSVYLQMNSLRAEDTAVYYCARDLVTSFDYWGQGTLVTVSS
VL: DIQMTQSPSSLSASVGDRVTITCQASQDINNYLNWYQQKPGKAPKLLIYDASYLETGVPSGFSGSGSGTDFTFTISSLQPEDIATYYCQQYDSLPYTFGQGTKLEIK
notes: H4H prefix = human IgG4 Fc
Take B2: in assay [1], the “IC50 [M], inhibition of hGREM1-His” value was 5.3e-10 M. In assay [2], the “hGREM1-His Inhibition IC50, M; W-20-17 cell differentiation assay (alkaline phosphatase)” value was determined as 6.1 nM. Moreover, in assay [3], the “Binding Signal with 30 sec Association” value was 0.23 nm and the “Binding Signal with 300 sec Association” value came out at 0.41 nm. For the same molecule, in assay [4], the “Binding Signal with 30 sec Association” value came to 0.02 nm and the “Binding Signal with 300 sec Association” value was determined as 0.22 nm. In assay [5], this molecule came in with a Kd of 1.51 nM, a koff of 0.000117 s⁻¹, a kon of 77900 M⁻¹ s⁻¹ and a t1/2 of 98 min. Besides, in assay [6], the Kd worked out at 2.53 nM, the koff was 0.000262 s⁻¹, the kon stood at 103000 M⁻¹ s⁻¹ and the t1/2 was found to be 44 min. In assay [7], the “Reduction … at 30 sec” value turned out to be 0.21 nm and the “Reduction … at 300 sec” value came out at 0.19 nm. Besides, in assay [8], the “% blocked at maximum Ab tested (20 nM)” value stood at 96% and the IC50 was determined as 0.036 nM.

B3: H4H6238P (antibody, human IgG4, V domains shown)
VH: QVQLVESGGGLVKPGGSLRLSCAASGFTFSDYYMSWIRQAPGKGLEWVSYIGTRGSSIYYADSLKGRFTISRDNAKNSLYLQMNSLRAEDTAVYYCARDPTGTSYFDYWGQGTLVTVSS
VL: not shown
notes: H4H prefix = human IgG4 Fc
As to B3, the “IC50 [M], inhibition of hGREM1-His” value in assay [1] turned out to be 1.1e-09 M. Also, in assay [2], the “hGREM1-His Inhibition IC50, M; W-20-17 cell differentiation assay (alkaline phosphatase)” value stood at 22 nM. Also, in assay [3], the “Binding Signal with 30 sec Association” value was found to be 0.13 nm and the “Binding Signal with 300 sec Association” value was determined as 0.41 nm. Further, in assay [4], the “Binding Signal with 30 sec Association” value is 0.02 nm and the “Binding Signal with 300 sec Association” value stood at 0.33 nm. Further, in assay [5], the Kd is 9.32 nM, the koff amounted to 0.000225 s⁻¹, the kon came to 24100 M⁻¹ s⁻¹ and the t1/2 was found to be 51 min. In assay [6], this molecule registered a Kd of 16.4 nM, a koff of 0.000931 s⁻¹, a kon of 56900 M⁻¹ s⁻¹ and a t1/2 of 12 min. Also, in assay [7], the “Reduction … at 30 sec” value was 0.11 nm and the “Reduction … at 300 sec” value worked out at 0.08 nm. Besides, in assay [8], the “% blocked at maximum Ab tested (20 nM)” value worked out at 64% and the IC50 amounted to 0.97 nM.

B4: H4H6250P (antibody, human IgG4, V domains shown)
VH: QVQLVESGGGVVQPGRSLRLSCAASGFTFSNYGMHWVRQAPGKGLEWVAVIWYDGSNKYYADSVKGRFTISRDNSRKTLYLQMNSLRAEDTAIYYCTRDDYGDYDYPFDYWGQGTLVTVSS
VL: DIQMTQSPSSLSASVGDRVTITCRASQGIRNDLGWYQQKPGKAPKRLIYAASSLQSGVPSRFSGTGSGTEFTLTISSLQPEDFATYYCLQHNSYPPFTFGPGTKVDIK
notes: H4H prefix = human IgG4 Fc
Regarding B4, the “IC50 [M], inhibition of hGREM1-His” value in assay [1] came to 4.4e-10 M. The “hGREM1-His Inhibition IC50, M; W-20-17 cell differentiation assay (alkaline phosphatase)” value in assay [2] is 12 nM. In assay [3], the “Binding Signal with 30 sec Association” value turned out to be 0.2 nm and the “Binding Signal with 300 sec Association” value was 0.37 nm. In assay [4], the “Binding Signal with 30 sec Association” value was 0.06 nm and the “Binding Signal with 300 sec Association” value was determined as 0.32 nm. In assay [5], this molecule had a Kd of 3.3 nM, a koff of 0.000297 s⁻¹, a kon of 90100 M⁻¹ s⁻¹ and a t1/2 of 39 min. In assay [6], this molecule gave a Kd of 5.93 nM, a koff of 0.000882 s⁻¹, a kon of 149000 M⁻¹ s⁻¹ and a t1/2 of 13 min. In assay [7], the “Reduction … at 30 sec” value turned out to be 0.14 nm and the “Reduction … at 300 sec” value turned out to be 0.05 nm. For the same molecule, in assay [8], the “% blocked at maximum Ab tested (20 nM)” value came to 42% and the IC50 turned out to be 0.11 nM.

B5: H4H6252P (antibody, human IgG4, V domains shown)
VH: B4 VH with K43R, Y53F, R76K, K77N, A88S, I93V
VL: B4 VL with T65S, H91Y, S93T
notes: H4H prefix = human IgG4 Fc; also called H4H6252S
For the molecule B5, the “IC50 [M], inhibition of hGREM1-His” value in assay [1] was 8.2e-10 M. Besides, the “hGREM1-His Inhibition IC50, M; W-20-17 cell differentiation assay (alkaline phosphatase)” value in assay [2] was 6.1 nM. Further, in assay [3], the “Binding Signal with 30 sec Association” value stood at 0.23 nm and the “Binding Signal with 300 sec Association” value was 0.44 nm. In addition, in assay [4], the “Binding Signal with 30 sec Association” value is 0.04 nm and the “Binding Signal with 300 sec Association” value is 0.35 nm. Further, in assay [5], the affinity, expressed as Kd, was 1.02 nM; the koff amounted to 7.58e-05 s⁻¹; the kon was 74600 M⁻¹ s⁻¹; the t1/2 was 152 min. In assay [6], the Kd was determined as 4.14 nM, the koff came out at 0.000459 s⁻¹, the kon turned out to be 111000 M⁻¹ s⁻¹ and the t1/2 amounted to 25 min. For the same molecule, in assay [7], the “Reduction … at 30 sec” value is 0.19 nm and the “Reduction … at 300 sec” value stood at 0.09 nm. Moreover, in assay [8], the “% blocked at maximum Ab tested (20 nM)” value stood at 53% and the IC50 is 0.19 nM.

B6: H4H6246P (antibody, human IgG4, V domains shown)
VH: B4 VH with N31S, V50I, K58R, K77N, I93V, T97A, D100E
VL: B4 VL with Y36F, T65S, S93T
notes: H4H prefix = human IgG4 Fc
On to B6, for which, in assay [1], the “IC50 [M], inhibition of hGREM1-His” value came to 5.6e-10 M. Further, the “hGREM1-His Inhibition IC50, M; W-20-17 cell differentiation assay (alkaline phosphatase)” value in assay [2] worked out at 6.2 nM. Further, in assay [3], the “Binding Signal with 30 sec Association” value amounted to 0.19 nm and the “Binding Signal with 300 sec Association” value stood at 0.38 nm. Further, in assay [4], the “Binding Signal with 30 sec Association” value is 0.06 nm and the “Binding Signal with 300 sec Association” value was determined as 0.34 nm. In assay [5], the Kd worked out at 2.59 nM, the koff was 0.000192 s⁻¹, the kon came out at 73900 M⁻¹ s⁻¹ and the t1/2 stood at 60 min. Further, in assay [6], binding was characterised by a dissociation constant (Kd) of 3.5 nM, the koff amounted to 0.000444 s⁻¹, the kon is 127000 M⁻¹ s⁻¹ and the t1/2 is 26 min. In assay [7], the “Reduction … at 30 sec” value was 0.13 nm and the “Reduction … at 300 sec” value was 0.04 nm. Besides, in assay [8], the “% blocked at maximum Ab tested (20 nM)” value amounted to 62% and the IC50 amounted to 1.5 nM.

The values are drawn from patent US20200157194A1 (Regeneron, published 2020).
